Positions count from the first letter of the chain named.
Tests used:
Assay in all cases: ITC; A1 (500 μM) in the injection syringe titrated in 2 μL increments into HA-DV or HA-DV variant (50 μM) in the sample cell; 298 K; 25 mM Hepes pH 7.1, 50 mM NaCl, 2 mM CaCl2; one site binding model
Details in all cases: both partners purified
[1] = target: T1, HA-tagged domain V of human β2GPI (HA-DV), wild type (human, UniProt P02749 263-345)
T1 construct: beta2-glycoprotein I (β2GPI), human, domain V, residues 244-326; also called wild type HA-DV; β2GPI-DV; source: expressed from a pET15b vector and purified as previously described [34]; not shown: HA, N-terminal, kept
T1 sequence (looked up): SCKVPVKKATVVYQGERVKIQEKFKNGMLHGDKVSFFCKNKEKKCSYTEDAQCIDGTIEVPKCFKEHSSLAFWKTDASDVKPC

HA-DV Lys308/Arg = target: T2, HA-DV Lys308/Arg (human, UniProt P02749 263-345, Lys308/Arg)
T2 construct: beta2-glycoprotein I (β2GPI), human, domain V, residues 244-326, Lys308 to Arg; Point mutant of m2; also called Lys308/Arg variant of HA-DV; source: expressed from a pET15b vector and purified as previously described [34]; not shown: HA, N-terminal, kept
T2 sequence (looked up): T1 sequence (looked up) with K65R

HA-DV Lys282/Arg = target: T3, HA-DV Lys282/Arg (human, UniProt P02749 263-345, Lys282/Arg)
T3 construct: beta2-glycoprotein I (β2GPI), human, domain V, residues 244-326, Lys282 to Arg; Point mutant of m2; also called Lys282/Arg variant of HA-DV; source: expressed from a pET15b vector and purified as previously described [34]; not shown: HA, N-terminal, kept
T3 sequence (looked up): T1 sequence (looked up) with K39R

HA-DV Leu313/Asn = target: T4, HA-DV Leu313/Asn (human, UniProt P02749 263-345, Leu313/Asn)
T4 construct: beta2-glycoprotein I (β2GPI), human, domain V, residues 244-326, Leu313 to Asn; Point mutant of m2; also called Leu313/Asn variant of HA-DV; source: expressed from a pET15b vector and purified as previously described [34]; not shown: HA, N-terminal, kept
T4 sequence (looked up): T1 sequence (looked up) with L70N

[2] = target: T5, HA-DV Leu313/Asp_Phe315/Ser (human, UniProt P02749 263-345, Leu313/Asp | Phe315/Ser)
T5 construct: beta2-glycoprotein I (β2GPI), human, domain V, residues 244-326, Leu313 to Asp and Phe315 to Ser; Double mutant of m2; source: expressed from a pET15b vector and purified as previously described [34]; not shown: HA, N-terminal, kept
T5 sequence (looked up): T1 sequence (looked up) with L70D, F72S

binding result [1]: binds | binding result (HA-DV Lys308/Arg): binds | binding result (HA-DV Lys282/Arg): binds | binding result (HA-DV Leu313/Asn): binds | binding result [2]: binds
B1: A1, fragment of mouse ApoER2 (residues 12-47) in which Asp is substituted for Asn36 (domain or fragment)
chain: not shown
notes: source: Escherichia coli, purified as previously described [64]

From article PMC5523967, “Dimerized Domain V of Beta2-Glycoprotein I Is Sufficient to Upregulate Procoagulant Activity in PMA-Treated U937 Monocytes and Require Intact Residues in Two Phospholipid-Binding Loops” (Antibodies, 2017)
